Common to all, as to assay: cell-based or functional assay
In experiment [1] the target is hemagglutinin (HA) of influenza A/Vietnam/1194/04 (H5N1) (influenza A virus A/Vietnam/1194/04 (H5N1)).
The target in experiment [2] is hemagglutinin (HA) of influenza A/New Caledonia/20/99 (H1N1) (influenza A virus A/New Caledonia/20/99 (H1N1)).
Experiment [3] addresses hemagglutinin (HA) of influenza A/Brisbane/10/07 (H3N2) (influenza A virus A/Brisbane/10/07 (H3N2)).
Experiment [4] addresses hemagglutinin (HA) of influenza A/Hong Kong/1/68 (H3N2) (influenza A virus A/Hong Kong/1/68 (H3N2)) (UniProt Q91MA7).
The target of experiment [5] is hemagglutinin (HA) of influenza A/California/07/09 (H1N1) (influenza A virus A/California/07/09 (H1N1)).
The target of experiment [6] is hemagglutinin (HA) of influenza virus B/Florida/04/06 (Yamagata) (influenza B virus).
The target of experiment [7] is hemagglutinin (HA) of influenza virus H1N1 A/Puerto Rico/8/34-MA (influenza A virus).
Experiment [8] deals with hemagglutinin (HA) of influenza virus B/Lee/40 (Old) (influenza B virus) (UniProt P03460).
Experiment [9] addresses hemagglutinin (HA) of influenza virus H5N1 A/Vietnam/1194/04 (influenza A virus).
In experiment [10] the target is hemagglutinin (HA) of influenza virus H7N3 A/NIBRG/60 (A/mallard/Netherlands/12/00) (influenza A virus).
The target of experiment [11] is hemagglutinin (HA) of influenza virus H3N2 A/HK/1/68-MA (influenza A virus).
The target of experiment [12] is HA of H7N3 A/NIBRG/60 (A/mallard/NL/12/00) (influenza A virus).
Experiment [13] addresses HA of H5N1 A/Vietnam/1194/04 (influenza A virus).
The target in experiment [14] is HA of H1N1 A/New Caledonia/20/1999 (influenza A virus).
Experiment [15] concerns the target HA of H3N2 A/Brisbane/10/2007 (influenza A virus).
In experiment [16] the target is HA of H1N1 A/Brisbane/59/07 (influenza A virus).
Experiment [17] concerns the target hemagglutinin (HA) of influenza B/Harbin/7/94 (Yamagata) (influenza B virus).
For experiment [18], the target named is hemagglutinin (HA) of influenza B/Malaysia/2506/04 (Victoria) (influenza B virus).
Experiment [19] has as its target hemagglutinin (HA) of influenza B/Massachusetts/02/12 (Yamagata) (influenza B virus).
The target of experiment [20] is hemagglutinin (HA) of influenza B/Lee/40 (Old) (influenza B virus) (UniProt P03460).
Experiment [21] concerns the target hemagglutinin (HA) of influenza B/Florida/04/06 (Yamagata) (influenza B virus).
The target of experiment [22] is hemagglutinin (HA) of influenza virus H3N2 A/Wisconsin/67/05 (influenza A virus).
The target in experiment [23] is hemagglutinin (HA) of influenza virus H1N1 A/California/07/09 (influenza A virus).

B1: SD3013 (VHH)
VHH: EVQLVESGGGVVQPGGSLRLSCAASISIFDIYAMDWYRQAPGKQRELVATSFRDGSTYYADSVKGRFTISRDNSKNTLYLQMNSLRAEDTAVYLCHVSLYRDPLGVAGGMGVYWGKGALVTVSS
For B1, the VNA IC50 in [1] was found to be 20 nM; in experiment [2] it was 6 nM; in experiment [3], 318 nM; in experiment [4], 126 nM.

B2: SD3079 (VHH)
VHH: EVQLVESGGGVVQPGGSLRLSCAASISIFDIYAMDWYRQAPGKQRELVAVSFRDGSTYYADSVKGRFTISRDNSKNTLYLQMNSLRAEDTAVYYCHVSLYRDPLGVAGGLGVYWGQGTLVTVSS
In the case of B2, the VNA IC50 in [1] is 16 nM; in experiment [2] it was 5 nM; in [3], 949 nM; in experiment [4], 503 nM.

B3: SD3021 (VHH)
VHH: EVQLVESGGGVVQPGGSLRLSCAASISIFDIYAMDWYRQAPGKQRELVAVSFRDGSTYYADSVKGRFTISRDNSKNTLYLQMNSLRPEDTAVYLCHVSLYRDPLGVAGGLGVYWGKGALVTVSS
B3: the VNA IC50 in experiment [1] was 15 nM; in [5] it was 3 nM; in [2] it was 3 nM; in [3] it was above 1000 nM.

B4: SD3119 (VHH)
VHH: QVQLVESGGGVVQPGGSLRLSCAASISIFDIYAMDWYRQAPGKQRELVAVSFRDGSTYYADSVKGRFTISRDNSKNTLYLQMNSLRAEDTAVYYCHVSLYRDPLGVAGGIGVYWGQGTLVTVSS
B4: the VNA IC50 in experiment [1] amounted to 6 nM; in experiment [2], 3 nM; in [3], 253 nM; in [4], 101 nM.

B5: MD2402 (protein)
chain: EVQLVESGGGLVQPGGSLRLSCAVSISIFDIYAMDWYRQAPGKQRDLVATSFRDGSTNYADSVKGRFTISRDNAKNTLYLQMNSLKPEDTAVYLCHVSLYRDPLGVAGGMGVYWGKGALVTVSSAAAGGGGSGGGGSGGGGSGGGGSGGGGSGGGGSGGGGSEVQLVESGGGLVQAGGSLKLSCAASGRTYAMGWFRQAPGKEREFVAHINALGTRTYYSDSVKGRFTISRDNAKNTEYLEMNNLKPEDTAVYYCTAQGQWRAAPVAVAAEYEFWGQGTQVTVSSLINLEGGGGSGGGGSGGGGSGGGGSGGGGSGGGGSGGGGSPAGEVQLVESGGGLVQPGGSLRLSCAATGFTLENKAIGWFRQTPGSEREGVLCISKSGSWTYYTDSMRGRFTISRDNAENTVYLQMDSLKPEDTAVYYCATTTAGGGLCWDGTTFSRLASSWGQGTQVTVSSAAAGGGGSGGGGSGGGGSGGGGSGGGGSGGGGSGGGGSEVQLVESGGGLVQPGGSLKLSCAASGFTFSTSWMYWLRQAPGKGLEWVSVINTDGGTYYADSVKDRFTISRDNAKDTLYLQMSSLKSEDTAVYYCAKDWGGPEPTRGQGTQVTVSS
With B5, the average neutralization titer in experiment [6] amounted to 14.1 nM; in experiment [7], 12.8 nM; in experiment [8] it was 35.4 nM; in experiment [9], 23.8 nM; in experiment [10], 33.6 nM; in [11], 28.3 nM.

B6: SD1017 (VHH)
VHH: EVQLVESGGGLVQAGGSLRLSCAASGRTYAMAWFRQAPGKEREFVAHINALGTRAYYSDSVEGRFTISRDNAKNTGYLQMNSLEPEDTAVYVCAAGGQWRAAPVADAAQYDFWGQGTQVTVSS
Turning to B6, the VNA titer in experiment [12] is 34.7 nM; in experiment [13], above 1000 nM; in [14], above 1000 nM; in experiment [15] it was above 1000 nM; in experiment [16] it was above 1000 nM.

B7: SD3087 (VHH)
VHH: EVQLLESGGGLVQPGGSLRLSCAASGFTLENKAIGWFRQAPGKEREGVLCISKSGSWTYYADSVKGRFTISRDNSKNTVYLQMNSLRPEDTAVYYCATTTAGGGLCWDGTTFSRLASSWGQGTLVTVSS
Regarding B7, the VNA IC50 in experiment [17] stood at 201 nM; in experiment [18] it was 81 nM; in [19] it was 104 nM; in experiment [20], 91 nM; in [21] it was 160 nM.

B8: MD2404 (bispecific antibody)
chain: EVQLVESGGGLVQPGGSLRLSCAVSISIFDIYAMDWYRQAPGKQRDLVATSFRDGSTNYADSVKGRFTISRDNAKNTLYLQMNSLKPEDTAVYLCHVSLYRDPLGVAGGMGVYWGKGALVTVSSAAAGGGGSGGGGSGGGGSGGGGSGGGGSGGGGSGGGGSEVQLVESGGGLVQAGGSLKLSCAASGRTYAMGWFRQAPGKEREFVAHINALGTRTYYSDSVKGRFTISRDNAKNTEYLEMNNLKPEDTAVYYCTAQGQWRAAPVAVAAEYEFWGQGTQVTVSSLINLEGGGGSGGGGSGGGGSGGGGSGGGGSGGGGSGGGGSPAGEVQLVESGGGLVQPGGSLKLSCAASGFTFSTSWMYWLRQAPGKGLEWVSVINTDGGTYYADSVKDRFTISRDNAKDTLYLQMSSLKSEDTAVYYCAKDWGGPEPTRGQGTQVTVSSAAAGGGGSGGGGSGGGGSGGGGSGGGGSGGGGSGGGGSEVQLVESGGGLVQPGGSLKLSCAASGFTFSTSWMYWLRQAPGKGLEWVSVINTDGGTYYADSVKDRFTISRDNAKDTLYLQMSSLKSEDTAVYYCAKDWGGPEPTRGQGTQVTVSS
B8: the average neutralization titer in [6] stood at 2.1 nM; in experiment [7], 12.2 nM; in experiment [8], 30.3 nM; in experiment [9] it was 20.4 nM; in experiment [10] it was 34.3 nM; in experiment [11] it was 57.7 nM.

B9: MD1214 (bispecific antibody)
chain: EVQLVESGGGLVQPGGSLRLSCAVSISIFDIYAMDWYRQAPGKQRDLVATSFRDGSTNYADSVKGRFTISRDNAKNTLYLQMNSLKPEDTAVYLCHVSLYRDPLGVAGGMGVYWGKGALVTVSSAAAGGGGSGGGGSGGGGSEVQLVESGGGLVQAGGSLKLSCAASGRTYAMGWFRQAPGKEREFVAHINALGTRTYYSDSVKGRFTISRDNAKNTEYLEMNNLKPEDTAVYYCTAQGQWRAAPVAVAAEYEFWGQGTQVTVSS
B9: the neutralization titer in experiment [22] amounted to 12.5 nM; in experiment [7], 7.5 nM; in experiment [9], 0.9 nM; in [23], 1.4 nM.

B10: SD3085 (VHH)
VHH: EVQLVESGGGLVQPGGSLRLSCAASGFTFSTSWMYWLRQAPGKGLEWVSVINTDGGTYYADSVKGRFTISRDNSKNTLYLQMNSLRAEDTAVYYCAKDWGGPEPTRGQGTLVTVSS
In the case of B10, the VNA IC50 was 228 nM in experiment [17]; 13 nM in experiment [18]; 32 nM in [19]; above 1000 nM in experiment [20]; 64 nM in [21].

B11: MD1216 (bispecific antibody)
chain: EVQLVESGGGLVQPGGSLRLSCAVSISIFDIYAMDWYRQAPGKQRDLVATSFRDGSTNYADSVKGRFTISRDNAKNTLYLQMNSLKPEDTAVYLCHVSLYRDPLGVAGGMGVYWGKGALVTVSSAAAGGGGSGGGGSGGGGSGGGGSGGGGGGSGGGGSGGGGSGGGGSGGGGSGGGGSGGGGSEVQLVESGGGLVQAGGSLKLSCAASGRTYAMGWFRQAPGKEREFVAHINALGTRTYYSDSVKGRFTISRDNAKNTEYLEMNNLKPEDTAVYYCTAQGQWRAAPVAVAAEYEFWGQGTQVTVSS
Turning to B11, the neutralization titer in [22] came to 12.1 nM; in experiment [7], 9.7 nM; in experiment [9], 3.4 nM; in experiment [23] it was 1.4 nM.

B12: SD3092 (VHH)
VHH: EVQLVESGGGLVQPGGSLRLSCAISGLSLDTYAVGWFRQAPGKEREGVSCISSGHGMTYYADSVKGRFTISTDNSKNTLYLQMNSLRAEDTAVYYCATESRYYCSDNWPAPQRYIYWGQGTLVTVSS
Take B12: the VNA IC50 in experiment [17] is above 1000 nM; in experiment [18] it was 40 nM; in experiment [19], above 1000 nM; in experiment [20], 40 nM; in experiment [21], above 1000 nM.

B13: SD3093 (VHH)
VHH: EVQLVESGGGLVQPGGSLRLSCAISGLSLDTYAVGWFRQAPGKEREGVSCISSGHGMTYYADSVKGRFTISTDNSKNTVYLQMNSLRAEDTAVYYCATESRYYCSDNWPAPQRYIYWGQGTLVTVSS
Consider B13, for which the VNA IC50 in experiment [17] is above 1000 nM; in experiment [18], 40 nM; in [19], 795 nM; in experiment [20], 32 nM; in [21] it was 659 nM.

The values are drawn from patent US20190359693A1.
